According to patent US20230250164A1 (AB2 BIO, published 2023):
Where a chain is given by its changes, count along the chain named.

B1: Antibody 107C6 (antibody, V domains shown)
VH: QIQLVQSGPELKKPGETVKLSCRASGYTFTNYGMNWVKQAPGKGLKWMGWINTYSGVPTYADDFKGQFAFSLETSAATAFLQINNLKDEDTATYFCAREGYSTTRSMDYWGQGTSVTVSS
VL: DIVMSQSPSSLAVSAGEKVTMSCKSSQSLLDSRTRKNYLVWYQQKPGQSPKLLIYWASTRGSGVPDRFTGSGSGTDFTLTISSVQAEDLAVYYCKQSYNLRTFGGGTKLEIK
notes: Mouse hybridoma monoclonal antibody; also called clone #107C6
B2: monoclonal anti-IL-18 antibody clone 131H1 (antibody)
chain 1: QVQLKQSGPGLVQPSQSLSITCTVSGFSLTSYGVHWVRQSPGKGLEWLGVIWSGGSTDYNAAFISRLSISKDNSKSQVFFKMNSLQADDTAIYYCARSYDYDGRGYFDYWGQGTTLTVSS
chain 2: DIQMTQSPASLSASVGETVTITCRASENVYRYLAWYQQRQGKSPQLLVYSAKTLAEGVPSRFSGSGSGTQFSLKINTLQPEDFGTYYCQHHYNTPLTFGAGTKLELK
chain 3: B1 VL with L30F, D31N, R33K, V40A, Y42F, K51E, G61K, R101W
B3: Antibody 108F8 (antibody, V domains shown)
VH: B1 VH with E10D, L11S
VL: B1 VL
notes: Mouse hybridoma monoclonal antibody
B4: Antibody 132H4 (antibody, V domains shown)
VH: EVKLVESGGGLVKPGGSLKLSCAASGFTFSNYAMSWVRQNPAKRLEWVATISSGGANIYYPDSVKGRFIISRDNARNTLYLQMSSLRSEDTAMYYCARGDYFNHFWFAYWGQGTLVTVSA
VL: DVLMTQTPLSLPVSLGDQASISCRSSQSIVHSNGNTYLEWYLQKPGQSPKFLIYKVSNRFSGVPDRFSGSGSGTDFTLKINRVEAEDLGIYYCFQGSHVPWTFGGGTKLEIK
notes: as for B3
B5: Antibody 109A6 (antibody, V domains shown)
VH: EVQLQQSGAELVKPGASVKLSCTASGFKIKDTYIHWVIQRPAQGLEWIGRIDPANGNTIYGSKFQGKATLTADTSSNTAYIHLSSLTSGDSAVYYCAGYVWFAYWGQGTLVTVSA
VL: DVVMTQVPLSLPVSLGDQASISCRSSQRLVHSNGNTYLHWFLQKPGQSPKLLIYTVSNRFSGVPDRFSGSGSGTDFTLKISRVEAEDLGVYFCSQSTLVPWTFGGGTKLEIK
notes: as for B3
B6: Antibody 131B4 (antibody, V domains shown)
VH: B5 VH with L4V, V37L, I38K, A42E, L70I, H82Q, S91T, Y95F
VL: DAVLTQTPLSLPVSLGDQASISCTSSQSLVHSNGNTYLHWYLQKPGQSPKLLIYKVSDRFSGVPDRFSGSGSGTDFTLMITRVEAEDLGVYFCSQSSLVPWTFGGGTKLEVK
notes: as for B3
B7: recombinant human IL-18 Binding Protein (IL-18BP) (other)
chain: TPVSQTTTAATASVRSTKDPCPSQPPVFPAAKQCPALEVTWPEVEVPLNGTLSLSCVACSRFPNFSILYWLGNGSFIEHLPGRLWEGSTSRERGSTGTQLCKALVLEQLTPALHSTNFSCVLVDPEQVVQRHVVLAQLWAGLRATLPPTQEALPSSHSSPQQQG
notes: Biotinylated in the second Luminex screening step; also called human IL-18BP; hIL-18BP

Each binder was assayed against T1, IL-18/IL-18BP complex (human, UniProt Q14116 37-193) (assay: Luminex, third screening step against first).
T1 construct: In the third screening step: Luminex beads linked to IL-18BP and then complexed to IL-18; also called IL-18 previously complexed to IL-18BP; complex IL-18/IL-18BP
T1 sequence 1: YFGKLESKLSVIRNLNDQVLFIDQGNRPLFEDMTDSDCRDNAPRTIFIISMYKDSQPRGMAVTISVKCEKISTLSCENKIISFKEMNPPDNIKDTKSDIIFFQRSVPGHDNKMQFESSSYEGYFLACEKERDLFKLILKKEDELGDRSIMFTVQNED
T1 sequence 2: B7 chain
Description: (§1) Mice were vaccinated aginst human interleukin-18 using a technology allowing immunization with properly folded proteins. […] Following immunization, B cells were isolated from spleen and hybridized following standard hybridoma technology. […] The screening was performed in 3 sequential and selective steps: […]

Question: B1 was tested. Which “fold inhibition (binding on IL-18 complexed to IL-18BP against binding on IL-18)” value (shortened to “fold inhibition”) did it give?
Answer: Its value is > 500 fold.

Question: Which “fold inhibition” value does the source give for B2 here?
Answer: Its value is > 500 fold.

Question: With B3 as the binder, how does the “fold inhibition” value read?
Answer: The value was > 500 fold.

Question: How did the “fold inhibition” value turn out when B4 was run?
Answer: Its value is > 500 fold.

Question: For B5, which “fold inhibition” value is on record?
Answer: The value was > 500 fold.

Question: Which “fold inhibition” value does the source give for B6 here?
Answer: Its value is > 500 fold.

The binders below were run against T2, human interleukin-18 (IL-18), recombinant (human, UniProt Q14116 37-193) (assay: Luminex, IL-18 on beads, hybridoma antibody).
T2 construct: Commercial recombinant human IL-18; also called human IL-18; free IL-18
T2 sequence (looked up): T1 sequence 1
Description: as §1

Question: For B1, which “fluorescence intensity (monoclonal antibody binding on IL-18)” value is on record?
Answer: Its value is 26200 fluorescence intensity.

Question: B2 was tested. Which “fluorescence intensity (monoclonal antibody binding on IL-18)” value did it give?
Answer: Its value is 24800 fluorescence intensity.

Question: How did the “fluorescence intensity (monoclonal antibody binding on IL-18)” value turn out when B3 was run?
Answer: Its value is 25100 fluorescence intensity.

Question: B4 was tested. Which “fluorescence intensity (monoclonal antibody binding on IL-18)” value did it give?
Answer: The value was 23800 fluorescence intensity.

Question: For B5, which “fluorescence intensity (monoclonal antibody binding on IL-18)” value is on record?
Answer: Its value is 25800 fluorescence intensity.

Question: How did the “fluorescence intensity (monoclonal antibody binding on IL-18)” value turn out when B6 was run?
Answer: Its value is 24800 fluorescence intensity.

These binders were tested against T1, IL-18/IL-18BP complex (assay: Luminex, beads linked to IL-18BP then complexed to IL-18, antibody binding).
Description: as §1

Question: Which “fluorescence intensity (monoclonal antibody binding on IL-18 previously complexed to IL-18BP)” value does the source give for B1 here?
Answer: Its value is 33 fluorescence intensity.

Question: How did the “fluorescence intensity (monoclonal antibody binding on IL-18 previously complexed to IL-18BP)” value turn out when B2 was run?
Answer: Its value is 24 fluorescence intensity.

Question: B3 was tested. Which “fluorescence intensity (monoclonal antibody binding on IL-18 previously complexed to IL-18BP)” value did it give?
Answer: Its value is 45 fluorescence intensity.

Question: For B4, which “fluorescence intensity (monoclonal antibody binding on IL-18 previously complexed to IL-18BP)” value is on record?
Answer: Its value is 28 fluorescence intensity.

Question: For B5, which “fluorescence intensity (monoclonal antibody binding on IL-18 previously complexed to IL-18BP)” value is on record?
Answer: The value was 33 fluorescence intensity.

Question: How did the “fluorescence intensity (monoclonal antibody binding on IL-18 previously complexed to IL-18BP)” value turn out when B6 was run?
Answer: The value was 41 fluorescence intensity.

These binders were tested against T2, human interleukin-18 (IL-18), … (assay: free IL-18 ELISA with IL-18BP capture; 400 pg/mL IL-18 in PBS 5% BSA spiked with IL-18BP).
Description: After that, 20 μl sample volume containing biological fluid or standard is dispensed per microplate well. Non-diluted or diluted biological fluid can be but is not restricted to serum, urine, tear, saliva, bile, sweat, exhalation or expiration, sputum, bronchoalveolar fluid, sebum, cellular, gland, mucosa or tissue secretion, biopsy, homogenized tissue. […] The plates are sealed and then incubated under gentle shaking for free IL-18 capture. […] The microplate wells are the washed extensively with the appropriate buffer and then, 100 μl buffer developing mixture is added to each well. The developing mixture contains a streptavidin-conjugated enzyme such as peroxidase or alkaline phosphatase. […] The resulting reactions are then monitored with a microplate reader at an appropriate nanometer wavelength for absorbance or fluorescence of the produced reagent.

Question: How did the “molar ratio IL-18BP/IL-18 at which free IL-18 is near background” value turn out when B7 was run?
Answer: The value was ~15 fold.

These binders were tested against T2, human interleukin-18 (IL-18), … (assay: Luminex competition, antibody pre-bound to IL-18 beads, biotinylated IL-18BP as competitor is detected).

Question: With B1 as the binder, how does the “fluorescence intensity (IL-18BP binding on IL-18 previously complexed to monoclonal antibody)” value read?
Answer: Its value is 1390 fluorescence intensity.

Question: Which “fluorescence intensity (IL-18BP binding on IL-18 previously complexed to monoclonal antibody)” value does the source give for B2 here?
Answer: The value was 1030 fluorescence intensity.

Question: How did the “fluorescence intensity (IL-18BP binding on IL-18 previously complexed to monoclonal antibody)” value turn out when B3 was run?
Answer: Its value is 1290 fluorescence intensity.

Question: With B4 as the binder, how does the “fluorescence intensity (IL-18BP binding on IL-18 previously complexed to monoclonal antibody)” value read?
Answer: The value was 1490 fluorescence intensity.

Question: Which “fluorescence intensity (IL-18BP binding on IL-18 previously complexed to monoclonal antibody)” value does the source give for B5 here?
Answer: The value was 913 fluorescence intensity.

Question: Which “fluorescence intensity (IL-18BP binding on IL-18 previously complexed to monoclonal antibody)” value does the source give for B6 here?
Answer: The value was 1660 fluorescence intensity.

What follows are binders tested against T2, human interleukin-18 (IL-18), … (assay: free IL-18 ELISA with plate-bound IL-18BP as capture; 400 pg/ml IL-18 in PBS with 5% BSA spiked with soluble IL-18BP at 0 to 10000 pg/ml; soluble IL-18BP competes with the capture IL-18BP).
Source text: Microplates can also be dried in a stabilizing solution allowing storage at room temperature and then be reconstituted by hydration when needed for assay.

Question: For B7, which “IC50 (read off the curve)” value is on record?
Answer: Its value is ~2 ng/mL.
